# US20160040149A1, “Compositions Having Dicamba Decarboxylase Activity and Methods of Use” (priority 2013, published 2016)
# B1: 91 (protein, listed as Botryotinia fuckeliana)
# chain: MASFVCNFGKAALATLLLTPSISAADYTPQETVLNSGRPTFYDASTSIPGKIALEEHVGNDLLNGLYTVPYYPNTNEPQYSDSVYIADVGEKMLDIPSRIANMDAANISISVLTFGGPGIQGVFNATYATYAAGYVNDYLYKNYKNNANYTGRFEFWCSNALQEPSKAATELERCVKELGGVGSFVGGYTNNGGINGTANDIVYLDDPSMEPFLEKVVELDVPIYLHPRMPAPSQLLSVKGYEFLGSSPWGFSSETGAHALRLMVSGTLDKYPTLKIVLGHCGEGLPFFLPRIDQRLRHFKKELFNNTLTMEEYWLRNFYVTTAGVQDAGTLVDTIKRTGEDRVMFSVDYPFEDTVEIAGWFDRLEMNTLTKTKLAYENAKALLKLTCYVDAEKRPRIFNKHHVDDIIKHTHSPCIWTLFH
# B2: 89 (protein, listed as Erwinia billingiae)
# chain: MATNRRDFLKNATAVMAGSTVFAGSSHFASAAAVEPAAVQPPRRIIALEEHFMLPEFVGYLHETQQNLRNGLVDKVVTPLSDFGKGRLEIMDKNGVDFAVLSLSGPGVQAEPDRVKAVRLARYANDKLATEMQKNPRRYGGFAHLAMQDPLAAANELERCVKQLHMQGGMINGETDGLYLDDRRYDVFWERVEALNVPIYIHPGNPPDYPHMFAGHPEMWGPVWSWAVETCSHALRLIFSGTFDRYPGARVILGHMGETLPIQLWRLDSRYQIANQTFAIKHPPSWYAKKNITITTSGVCNDAALRCALDSMGSENVMFSIDYPFESTEIAVNWLKTANITEQERNAVAWGNATSILRLGA
# B3: 92 (protein, listed as Chitinophaga pinensis)
# chain: MARIVTLEEHVSFPEMTALLPEEILKNRKQSGAALQMQEKLADITGERLTSMKAAGISMQVLSVENTDVYLLPDSLAPAFAAKYNDLLADKISSHSDAFAAFAMLPMTVPEAAADELERAVKTHGFCGAMIKGLINGVFLDAPKFAPVFACAEKLGVPLYIHPGIPPKEVIDAYYSNVGDTKGPNEAIACYGWGWHSETAIHILRLLAAGIFDKYPQLNIIIGHMGEMLPMMWERSNRVFQPGNNGKNQRTLIETFRKQLYITTSGIFTQPPLQIAIDTIGIDNILFSIDYPFSSNQMGIDFLTKAALPAEQLAKMAHGNADRILKF
# B4: 90 (protein)
# chain: MAATIDRVLYLGNATQRRYTSATVSVPRIFGKVALEEHVGTSIWAKYNLTPPANAVVGVLNRPPTLPNTLDTIARLDDINGRLSSMNHSGIGYVIVSLSSPGIQGVHDTALAIKFSTDINDELYLKYANAYPDKFAFFATVPMQDPVAAASELERAVSLLGAKGAAINGYTDIGPPGNSTTRYLDDPINAPFWSKVAALNVPIYLHPRAPPPSQQLVYNYPNNSLSAYPGLVTGGFAYGAETAVHALRLMLSGLFDTHPNIQIILGHAAEGLPFLIHRSDTQLAAEVPGTNGPYKRPLRYYLRNNFYATLSGVRRLSTTQCTLAEMGEERVLFSVDYPFQSNEDAADWFDGVEGMSVETKRKVARGNARRLFNLTVDLDERQIDGDFM
# modifications: Pyrenophora tritici-repentis
# B5: 94 (protein, listed as Bacillus thuringiensis)
# chain: MANRGDSNMKSLVGVIMGSTSDWETMKYACDILDELNIPYEKKVVSAHRTPDYMFEYAETARERGLKVIIAGAGGAAHLPGMVAAKTNLPVIGVPVQSKALNGLDSLLSIVQMPGGVPVATVAIGKAGSTNAGLLAAQILGSFHDDIHDALELRREAIEKDVREGSELV
# B6: 93 (protein, listed as Mucilaginibacter paludis)
# chain: MAKYGKHITINKNMRIVTLEEHISFPEMADQIPKAALGSFGRSEAMQRIAPKLADITGERLKSMDANGISMQVLSVDSSGVNLLSPQQGPAFATQYNDLIANRIAGFEKRFTAFAHLPMTAPFAAADELERAVKEHHFCGAMIRGLTGDQFLDHPQFAPIFERAQKLDVPIYLHPGLPPKGVADIYYSGLPNYSGMAEALACYGWGWHSETALHVLRLLFSGIFDQYPKLKLVIGHMGEMLPMMMARSEKAFKPGNGGANVRTLTDTFRSQVYLTTSGFFTQPPLKIALDTFGIDHVMFSVDYPFSTNEMGIEFLNEIDLPDEEVARIAHGNADKLLNLKA
# Assay: Saturation mutagenesis of SEQ ID NO:109: dicamba decarboxylation activity of point mutants (CO2 released), fold of backbone (Tables 7, 8, Megatable 1)
# Details: decarboxylation activity (CO2 released) of point mutant vs unmutated backbone protein; backbone SEQ ID NO: 109
row,Molecule,Fold Activity
1,B1,1.6 fold
2,B2,3.1 fold
3,B3,1.7 fold
4,B4,1.7 fold
5,B5,1.5 fold
6,B6,1.6 fold
